Results reported in PMC12724015.

Molecular target: peptide derived from subunit 5 of the pertussis toxin (PTX) (…) (Bordetella pertussis)

Substance: Bordetella pertussis DsbA (BperDsbA), mature, oxidized (from UniProt Q7W0K2 28-209) (enzyme)
- fraction of reduced BperDsbA (AMS alkylation, SDS-PAGE, densitometry) after 5, 10 and 30 s of 50 uM oxidized BperDsbA with 50 uM PTX peptide: 90%
